Measurements published in the RNAGym collection of RNA variant scans (doi:10.7554/elife.90254).

B1: LINE1-mini (parent)
chain: GGCAGAGCUCAACACAGCGUGGCAAAGUGGCUGUGGCUAGACUGCC

Variants of: B1
Assay: self-cleavage, relative activity (ratio to wild type); higher = more cleavage; in vitro, sequencing; the parent is a self-cleaving ribozyme

Variant	self-cleavage
C42A C46A	0.2
C42A C46U	0.19
C42A C46G	0.07
C45U	1.43
C45A	0.64
C45G	0.39
G40U C45G	0.14
G40U C45U	0.15
C42U	0.35
C42G	0.07
C42A	0.17
C46A	0.9
C46G	0.99
C46U	1.03
A41G C45U	0.49
A41G C45G	0.05
A41G C45A	0.09
U43A C45A	0.08
U43A C45U	0.16
U43A C45G	0.08
C45G C46G	0.53
C45G C46U	0.66
C45G C46A	0.21
C42G C45A	0.04

Variant	self-cleavage
C42G C45U	0.05
C42G C45G	0.09
C45A C46A	0.24
C45A C46G	0.36
C45A C46U	0.4
U43C G44C	0.08
U43C G44U	0.09
U43C G44A	0.11
G44C C46U	0.14
G44C C46G	0.08
G44C C46A	0.1
G44A C45G	0.2
G44A C45U	0.1
G44A C45A	0.07
G40U U43A	0.08
G40U U43G	0.47
G40U U43C	0.15
C42G U43C	0.03
C42G U43G	0.06
C42G U43A	0.06
U43G	0.12
U43A	0.11
U43C	0.14
G44C C45G	0.21

Variant	self-cleavage
G44C C45U	0.06
G44C C45A	0.05
G40U C46U	0.11
G40U C46G	0.06
G40U C46A	0.12
A41C G44C	0.08
A41C G44A	0.05
A41C G44U	0.11
C45U C46A	0.63
C45U C46U	1.03
C45U C46G	0.39
A41C C46U	0.04
A41C C46A	0.05
A41C C46G	0.07
A41G C46A	0.22
A41G C46G	0.08
A41G C46U	0.16
A41U C42G	0.07
A41U C42U	0.09
A41U C42A	0.09
U43G G44A	0.37
U43G G44U	0.25
U43G G44C	0.32
A41G C42U	0.11

Variant	self-cleavage
A41G C42G	0.06
A41G C42A	0.12
A41C C45A	0.11
A41C C45G	0.1
A41C C45U	0.1
C42U U43A	0.12
C42U U43C	0.11
C42U U43G	0.15
U43G C45U	0.19
U43G C45A	0.32
U43G C45G	0.09
C42U G44U	0.1
C42U G44C	0.13
C42U G44A	0.16
U43A C46A	0.1
U43A C46U	0.13
U43A C46G	0.14
A41C U43G	0.06
A41C U43A	0.11
A41C U43C	0.08
U43C C46U	0.1
U43C C46G	0.12
U43C C46A	0.11
C42G C46A	0.04

Variant	self-cleavage
C42G C46U	0.09
C42G C46G	0.04
G44A C46A	0.08
G44A C46U	0.16
G44A C46G	0.12
G44U C45U	0.14
G44U C45G	0.17
G44U C45A	0.11
U43C C45U	0.13
U43C C45G	0.1
U43C C45A	0.08
C42U C46G	0.19
C42U C46U	0.24
C42U C46A	0.16
A41U G44A	0.31
A41U G44C	0.49
A41U G44U	0.16
G44A	0.44
G44U	0.32
G44C	0.36
U43A G44C	0.1
U43A G44A	0.1
U43A G44U	0.18
A41G G44C	0.05

Variant	self-cleavage
A41G G44U	0.06
A41G G44A	0.08
C42U C45U	0.26
C42U C45A	0.14
C42U C45G	0.09
A41U C46U	0.9
A41U C46A	0.33
A41U C46G	0.57
A41C C42G	0.07
A41C C42U	0.05
A41C C42A	0.05
A41G U43G	0.05
A41G U43A	0.05
A41G U43C	0.04
G44U C46U	0.12
G44U C46G	0.08
G44U C46A	0.08
A41U C45A	0.19
A41U C45U	0.55
A41U C45G	0.23
C42G G44U	0.06
C42G G44C	0.06
C42G G44A	0.12
C42A U43A	0.15

Variant	self-cleavage
C42A U43G	0.07
C42A U43C	0.09
C42A G44U	0.11
C42A G44C	0.12
C42A G44A	0.25
U43G C46A	0.18
U43G C46G	0.32
U43G C46U	0.28
A41U	0.67
A41G	0.34
A41C	0.06
G40U G44A	0.14
G40U G44U	0.12
G40U G44C	0.16
C42A C45U	0.13
C42A C45A	0.09
C42A C45G	0.21
A41U U43C	0.09
A41U U43A	0.17
A41U U43G	0.17
